Experimental data reported in patent US20140242093A1, “METHODS AND COMPOSITIONS FOR MODULATING THE INNATE IMMUNE RESPONSE AND/OR MYOGENESIS IN A MAMMALIAN SUBJECT” (FRED HUTCHINSON CANCER RESEARCH CENTER, priority 2011, published 2014).
“Also recorded” adds a separate entry of the source.

Columns and labels:
Human myoblasts = assay: Expression array of the innate immune response to lentiviral infection versus uninfected cells; assay type: cell-based
Procedure: RNA was harvested from the lenti-viral infected cells and uninfected control cells at 24 hours after infection.

FSHD cultured myoblasts = assay: Dominant negative inhibition of DUX4-fl by lenti-DUX4-s in FSHD muscle cells; assay type: cell-based, human; conditions: lentiviral expression in FSHD muscle cells, 48 hours of differentiation
Procedure: Simultaneously, cells were transduced by lentivirus carrying DUX4-s or GFP along with 8 μg/mL polybrene. Cells were washed and changed to plain differentiation media after 24 hours. Cells were harvested for RNA after 48 hours of differentiation. Untransduced cells were used to assess baseline expression of DUX4-fl target genes.

B1: DUX4-s: short splice form of DUX4 (SEQ ID NO:112), keeps the double-homeobox domains, lacks the C-terminal activation domain (protein, listed as Homo sapiens)
chain: MALPTPSDSTLPAEARGRGRRRRLVWTPSQSEALRACFERNPYPGIATRERLAQAIGIPEPRVQIWFQNERSRQLRQHRRESRPWPGRRGPPEGRRKRTAVTGSQTALLLRAFEKDRFPGIAAREELARETGLPESRIQIWFQNRRARHPGQGGRAPAQV
- IL1R1 expression ratio vs GFP (.fc) (Human myoblasts; gene IL1R1 NM_000877.2, vs lenti-GFP, 24 hours after infection): 0.30 log2 fold change
- IL1R1 expression ratio vs NoLenti (.fc) (Human myoblasts; gene IL1R1 NM_000877.2, vs uninfected, 24 hours after infection): 1.61 log2 fold change
- IL7R expression ratio vs GFP (.fc) (Human myoblasts; gene IL7R NM_002185.2, vs lenti-GFP, 24 hours after infection): 0.57 log2 fold change
- IL7R expression ratio vs NoLenti (.fc) (Human myoblasts; gene IL7R NM_002185.2, vs uninfected, 24 hours after infection): 2.05 log2 fold change
- IL8 expression ratio vs GFP (.fc) (Human myoblasts; gene IL8 NM_000584.2, vs lenti-GFP, 24 hours after infection): 1.19 log2 fold change
- IL8 expression ratio vs NoLenti (.fc) (Human myoblasts; gene IL8 NM_000584.2, vs uninfected, 24 hours after infection): 4.69 log2 fold change
- IL18BP expression ratio vs GFP (.fc) (Human myoblasts; gene IL18BP NM_173042.2, vs lenti-GFP, 24 hours after infection): 1.40 log2 fold change
- IL18BP expression ratio vs NoLenti (.fc) (Human myoblasts; gene IL18BP NM_173042.2, vs uninfected, 24 hours after infection): 3.37 log2 fold change
- IRF7 expression ratio vs GFP (.fc) (Human myoblasts; gene IRF7 NM_004029.2, vs lenti-GFP, 24 hours after infection): 1.14 log2 fold change
- IRF7 expression ratio vs NoLenti (.fc) (Human myoblasts; gene IRF7 NM_004029.2, vs uninfected, 24 hours after infection): 3.99 log2 fold change
- IRF9 expression ratio vs GFP (.fc) (Human myoblasts; gene IRF9 NM_006084.4, vs lenti-GFP, 24 hours after infection): 0.29 log2 fold change
- IRF9 expression ratio vs NoLenti (.fc) (Human myoblasts; gene IRF9 NM_006084.4, vs uninfected, 24 hours after infection): 2.72 log2 fold change
- MX1 expression ratio vs GFP (.fc) (Human myoblasts; gene MX1 NM_002462.2, vs lenti-GFP, 24 hours after infection): 0.26 log2 fold change
- MX1 expression ratio vs NoLenti (.fc) (Human myoblasts; gene MX1 NM_002462.2, vs uninfected, 24 hours after infection): 7.49 log2 fold change
- NFIL3 expression ratio vs GFP (.fc) (Human myoblasts; gene NFIL3 NM_005384.2, vs lenti-GFP, 24 hours after infection): 0.32 log2 fold change
- NFIL3 expression ratio vs NoLenti (.fc) (Human myoblasts; gene NFIL3 NM_005384.2, vs uninfected, 24 hours after infection): 2.16 log2 fold change
- NFKBIA expression ratio vs GFP (.fc) (Human myoblasts; gene NFKBIA NM_020529.1, vs lenti-GFP, 24 hours after infection): 0.28 log2 fold change
- NFKBIA expression ratio vs NoLenti (.fc) (Human myoblasts; gene NFKBIA NM_020529.1, vs uninfected, 24 hours after infection): 2.46 log2 fold change
- NFKBIZ expression ratio vs GFP (.fc) (Human myoblasts; gene NFKBIZ NM_001005474.1, vs lenti-GFP, 24 hours after infection): −0.26 log2 fold change
- NFKBIZ expression ratio vs NoLenti (.fc) (Human myoblasts; gene NFKBIZ NM_001005474.1, vs uninfected, 24 hours after infection): 1.58 log2 fold change
- STAT1 expression ratio vs GFP (.fc) (Human myoblasts; gene STAT1 NM_007315.2, vs lenti-GFP, 24 hours after infection): 0.82 log2 fold change
- STAT1 expression ratio vs NoLenti (.fc) (Human myoblasts; gene STAT1 NM_007315.2, vs uninfected, 24 hours after infection): 4.79 log2 fold change
- STAT2 expression ratio vs GFP (.fc) (Human myoblasts; gene STAT2 NM_005419.2, vs lenti-GFP, 24 hours after infection): 0.19 log2 fold change
- STAT2 expression ratio vs NoLenti (.fc) (Human myoblasts; gene STAT2 NM_005419.2, vs uninfected, 24 hours after infection): 2.11 log2 fold change
- TLR3 expression ratio vs GFP (.fc) (Human myoblasts; gene TLR3 NM_003265.2, vs lenti-GFP, 24 hours after infection): 1.67 log2 fold change
- TLR3 expression ratio vs NoLenti (.fc) (Human myoblasts; gene TLR3 NM_003265.2, vs uninfected, 24 hours after infection): 2.56 log2 fold change
- TNFAIP2 expression ratio vs GFP (.fc) (Human myoblasts; gene TNFAIP2 NM_006291.2, vs lenti-GFP, 24 hours after infection): 0.06 log2 fold change
- TNFAIP2 expression ratio vs NoLenti (.fc) (Human myoblasts; gene TNFAIP2 NM_006291.2, vs uninfected, 24 hours after infection): 1.06 log2 fold change
- TNFAIP3 expression ratio vs GFP (.fc) (Human myoblasts; gene TNFAIP3 NM_006290.2, vs lenti-GFP, 24 hours after infection): 0.28 log2 fold change
- TNFAIP3 expression ratio vs NoLenti (.fc) (Human myoblasts; gene TNFAIP3 NM_006290.2, vs uninfected, 24 hours after infection): 2.50 log2 fold change
- TNFAIP6 expression ratio vs GFP (.fc) (Human myoblasts; gene TNFAIP6 NM_007115.2, vs lenti-GFP, 24 hours after infection): 1.31 log2 fold change
- TNFAIP6 expression ratio vs NoLenti (.fc) (Human myoblasts; gene TNFAIP6 NM_007115.2, vs uninfected, 24 hours after infection): 5.10 log2 fold change
- TNFRSF6B expression ratio vs GFP (.fc) (Human myoblasts; gene TNFRSF6B NM_032945.2, vs lenti-GFP, 24 hours after infection): 0.01 log2 fold change
- TNFRSF6B expression ratio vs NoLenti (.fc) (Human myoblasts; gene TNFRSF6B NM_032945.2, vs uninfected, 24 hours after infection): 1.32 log2 fold change
- TNFRSF10A expression ratio vs GFP (.fc) (Human myoblasts; gene TNFRSF10A NM_003844.2, vs lenti-GFP, 24 hours after infection): 0.84 log2 fold change
- TNFRSF10A expression ratio vs NoLenti (.fc) (Human myoblasts; gene TNFRSF10A NM_003844.2, vs uninfected, 24 hours after infection): 1.81 log2 fold change
- TNFRSF14 expression ratio vs GFP (.fc) (Human myoblasts; gene TNFRSF14 NM_003820.2, vs lenti-GFP, 24 hours after infection): 0.57 log2 fold change
- TNFRSF14 expression ratio vs NoLenti (.fc) (Human myoblasts; gene TNFRSF14 NM_003820.2, vs uninfected, 24 hours after infection): 1.78 log2 fold change
- TNFSF10 expression ratio vs GFP (.fc) (Human myoblasts; gene TNFSF10 NM_003810.2, vs lenti-GFP, 24 hours after infection): 2.97 log2 fold change
- TNFSF10 expression ratio vs NoLenti (.fc) (Human myoblasts; gene TNFSF10 NM_003810.2, vs uninfected, 24 hours after infection): 3.88 log2 fold change
- TNFSF13B expression ratio vs GFP (.fc) (Human myoblasts; gene TNFSF13B NM_006573.3, vs lenti-GFP, 24 hours after infection): 2.19 log2 fold change
- TNFSF13B expression ratio vs NoLenti (.fc) (Human myoblasts; gene TNFSF13B NM_006573.3, vs uninfected, 24 hours after infection): 3.78 log2 fold change
- number of the 341 lenti-GFP induced genes induced 2-fold or more (Human myoblasts; vs uninfected cells, 24 hours): 315 genes
- endogenous expression of DUX4 target genes (PRAMEF1, RFPL2, MBD3L2) (FSHD cultured myoblasts): inhibited the endogenous expression of the target genes; also recorded: blocks expression of these three DUX4-fl target genes
